Measured values: patent US20110256172A1

Target: Bacillus anthracis protective antigen (PA83, List Biological Laboratories) (Bacillus anthracis) (UniProt P13423)
Experiment: cell-based or functional assay

Sequence of UniProt P13423 (P13423 30-764): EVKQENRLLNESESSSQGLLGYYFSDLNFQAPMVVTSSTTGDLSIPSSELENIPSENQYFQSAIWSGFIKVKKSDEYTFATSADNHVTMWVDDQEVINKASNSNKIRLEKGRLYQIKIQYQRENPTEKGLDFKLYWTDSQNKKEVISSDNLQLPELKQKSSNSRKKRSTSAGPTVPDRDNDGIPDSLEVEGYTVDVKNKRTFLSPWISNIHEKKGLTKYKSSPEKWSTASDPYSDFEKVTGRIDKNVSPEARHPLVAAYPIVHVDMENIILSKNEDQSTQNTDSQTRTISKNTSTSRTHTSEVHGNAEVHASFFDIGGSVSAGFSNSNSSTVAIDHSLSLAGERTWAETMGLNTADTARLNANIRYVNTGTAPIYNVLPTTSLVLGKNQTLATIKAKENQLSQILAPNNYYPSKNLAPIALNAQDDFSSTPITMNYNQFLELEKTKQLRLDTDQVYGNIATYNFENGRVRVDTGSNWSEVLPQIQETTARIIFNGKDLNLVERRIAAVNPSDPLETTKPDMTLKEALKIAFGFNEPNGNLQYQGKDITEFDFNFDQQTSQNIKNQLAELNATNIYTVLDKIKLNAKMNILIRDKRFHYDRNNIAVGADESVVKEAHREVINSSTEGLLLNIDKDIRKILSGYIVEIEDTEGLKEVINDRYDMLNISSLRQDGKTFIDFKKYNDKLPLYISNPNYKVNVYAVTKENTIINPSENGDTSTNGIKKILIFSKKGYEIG

## Sera of the three rabbits immunized with MAP304 (four copies of P30-PA 304-319)
  peak neutralization titer (TNA) (fold over the control PA antiserum): 23

## Sera of the three rabbits immunized with MAP305 (four copies of P30-PA 305-319)
  peak neutralization titer (TNA) (fold over the control PA antiserum): 19
